Experimental data: patent publication US10654939 (BEIJING MABWORKS BIOTECH, dated 2020)
Changes are numbered by the printed parent chain. Where two headings read alike, the source gives them in different places.

T1: rhesus CD40 expressed on HEK293A cells (rhesus monkey, UniProt P25942 21-277 (human entry))
T1 construct: also called HEK293A/rhesusCD40
T1 chain: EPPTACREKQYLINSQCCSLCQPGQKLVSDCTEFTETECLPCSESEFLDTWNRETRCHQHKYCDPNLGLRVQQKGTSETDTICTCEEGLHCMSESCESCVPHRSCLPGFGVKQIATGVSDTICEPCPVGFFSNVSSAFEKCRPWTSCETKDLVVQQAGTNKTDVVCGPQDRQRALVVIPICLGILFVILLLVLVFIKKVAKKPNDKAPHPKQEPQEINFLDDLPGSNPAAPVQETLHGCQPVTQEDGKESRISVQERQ

T2: recombinant rhesus CD40 (ECD)-hFc (rhesus monkey, UniProt P25942 21-193 (human entry))
T2 construct: Bought protein; also called rhCD40(ECd)-hFc; monkey CD40 (ECD)-hFc
T2 chain: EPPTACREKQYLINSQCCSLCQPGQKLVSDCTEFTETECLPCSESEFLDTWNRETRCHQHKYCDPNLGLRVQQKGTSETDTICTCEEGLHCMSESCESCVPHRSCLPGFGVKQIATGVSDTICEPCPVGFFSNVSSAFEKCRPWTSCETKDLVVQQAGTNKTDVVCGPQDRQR

B1: 13A2-VH3VL2 (antibody, human IgG2, kappa, V domains shown)
VH: QVQLQESGPGLVKPSDTLSLTCAVSGYSITTNYYWNWIRQPPGNKLEWMGYINYDGSNNYNPSLKNRITISVDTSKNQFSLKLSSVTAVDTAVYYCARLDYWGQGTLVTVSS
VL: DVVLTQSPLSLPVTLGQPASISCRSSQSLENSNGNTFLNWFQQRPGQSPRLLIYKVSNRFSGVPDRFSGSGSGTDFTLKISRVEAEDVGVYYCLQVTHVPFTFGQGTKLEIKR
notes: Humanized, human IgG2/kappa
B2: 13A2-VH3VL3 (antibody, human IgG2, kappa, V domains shown)
VH: B1 VH
VL: B1 VL with Y92F, Q105S
notes: Humanized, human IgG2/kappa
B3: 7B4-VH2VL2 (antibody, V domains shown)
VH: B1 VH with N44K, K45G, N53K
VL: B1 VL
notes: Humanized, human IgG2/kappa; also called 7B4H2L2
B4: 13A2 (mouse monoclonal antibody) (antibody, V domains shown)
VH: EVKLEQSGPGLVKPSQSLSLTCSVTGYSITTNYYWNWIRQFPGNKLEWMGYINYDGSNNYNPSLKNRISITRDTSKNQFFLKLNSVTTEDTATYYCARLDYWGQGTSVTVSS
VL: DIVMTQSPLSLPVSLGDQASISCRSSQSLENSNGNTFLNWFLQKPGQSPQLLIYKVSNRFSGVLDRFSGTGSGTDFTLTISRVEAEDLGVYFCLQVTHVPFTFGSGTKLEIK
B5: chimeric 13A2 antibody (antibody, human IgG2, kappa, V domains shown)
VH: B4 VH
VL: DIVMTQSPLSLPVSLGDQASISCRSSQSLENSNGNTFLNWFLQKPGQSPQLLIYKVSNRFSGVLDRFSGTGSGTDFTLTISRVEAEDLGVYFCLQVTHVPFTFGSGTKLEIKR
notes: Mouse variable regions with human IgG2/kappa constant regions
B6: 16A6 (mouse monoclonal antibody) (antibody, V domains shown)
VH: B4 VH with K3Q, Y34H, N53K
VL: B4 VL with M4L, P8T, P12S, F76L

Legend:
[1] = molecular target: T3, recombinant human CD40 (ECD)-his (human, UniProt P25942 21-193); test: SPR (Biacore 8K), hCD40(ECD)-his coupled to chip, antibody injected
T3 construct: Bought protein; also called hCD40(ECD)-his; TNFRSF5
Description: SPR assays were used to determine the binding affinity of the chimetic or humanized anti-CD40 antibodies to human CD40 with the BIAcore™ 8K instrument (GE Life Sciences). Briefly, 100-200 response units (RU) of human CD40 (ECD)-his protein (Sino Biological, CN, Cat #: 10774-H08H) were coupled to CM5 biosensor chips (Cat #: BR-1005-30, GE Life Sciences), followed by blocking of un-reacted groups with 1M ethanolamine. Serially diluted antibodies at concentrations ranging from […] were injected into the SPR running buffer (HBS-EP buffer, pH7.4, GE Life Sciences; US; Cat #: BR-1006-69) at 30 μL/minute. The binding capacity was calculated with the RUs of blank controls subtracted. The association rate (k_a) and dissociation rate (k_d) were calculated using the one-to-one Langmuir binding model (BIA Evaluation Software, GE Life Sciences). The equilibrium dissociation constant K_D was calculated as the k_d/k_a ratio.

[2] = molecular target: T1, rhesus CD40 expressed on HEK293A cells; test: FACS on HEK293A/rhesus CD40 cells, serially diluted antibody (Example 14, protocol of Example 5)
Description: (§1) Example 5 Mouse Anti-CD40 Monoclonal Antibodies Bound to Human and Rhesus CD40 Expressed on HEK293A Cells To further determine whether anti-CD40 antibodies bound to human, monkey or mouse CD40 expressed on HEK293A cells, a cell-based binding assay by FACS was performed using the HEK293A cells stably overexpressing human, monkey or mouse CD40 as generated in Example 1, respectively. Briefly, 10^5 HEK293A cells were seeded into each well of the 96-well plates and serially diluted anti-CD40 antibodies were added to the plates. After incubated at 4° C. for 1 hour, plates were washed 3 times with PBST. Then, an APC coupled Goat Anti-Mouse IgG (BioLegen, US, Cat #: 405308) diluted 500× was added to the plates. After incubation at 4° C. for 1 hour, the plates were washed with PBS for 3 times and then cell fluorescence was monitored using a FACS machine (BD).
The chimeric and humanized anti-CD40 antibodies were further characterized for their ability of binding to HEK293A/humanCD40 cells and HEK293A/rhesus CD40 cells, following the protocols described in Example 5. They were also tested for their ability to activate CD40 signaling in HEK-Blue assay, and to promote dendritic cell maturation, following the protocols in Example 7 and Example 9, respectively, the dendritic cells collected form three healthy human donors. IL-12(p40) secretion by the dendritic cells was measured by using human IL12(p40) ELISA kit (BD, US, Cat #: 551116) following themanufactor's instruction.

[3] = molecular target: Full-length CD40 ECD (amino acid 21-193, human CD40) with mFc-tag (human); test: ELISA on recombinant CD40 ECD proteins with mFc tag (Example 16); antibody concentration not given
[4] = molecular target: T4, CD40 ECD Truncant 1 (amino acid 61-193) with mFc-tag (human); test: as above
T4 construct: mFc-tag at the C terminus; also called CRD2/3/4
T4 sequence (chain, as listed by the source limits assumed): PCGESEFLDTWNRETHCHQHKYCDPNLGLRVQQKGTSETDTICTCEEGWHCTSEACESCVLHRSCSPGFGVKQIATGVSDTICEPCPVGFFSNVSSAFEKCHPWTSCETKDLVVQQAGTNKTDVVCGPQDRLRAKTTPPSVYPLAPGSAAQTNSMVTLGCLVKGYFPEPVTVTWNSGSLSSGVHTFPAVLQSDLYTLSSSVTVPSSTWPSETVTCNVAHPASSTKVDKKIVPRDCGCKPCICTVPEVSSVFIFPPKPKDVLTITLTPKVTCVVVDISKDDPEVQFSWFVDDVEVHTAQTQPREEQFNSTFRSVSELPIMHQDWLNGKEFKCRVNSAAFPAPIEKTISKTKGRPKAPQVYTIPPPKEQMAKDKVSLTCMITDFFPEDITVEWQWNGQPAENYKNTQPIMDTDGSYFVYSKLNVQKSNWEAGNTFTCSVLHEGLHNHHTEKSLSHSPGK

[5] = molecular target: T5, CD40 ECD Truncant 2 (amino acid 104-193) with mFc-tag (human); test: as above
T5 construct: mFc-tag at the C terminus; also called CRD3/4
T5 sequence (chain, as listed by the source limits assumed): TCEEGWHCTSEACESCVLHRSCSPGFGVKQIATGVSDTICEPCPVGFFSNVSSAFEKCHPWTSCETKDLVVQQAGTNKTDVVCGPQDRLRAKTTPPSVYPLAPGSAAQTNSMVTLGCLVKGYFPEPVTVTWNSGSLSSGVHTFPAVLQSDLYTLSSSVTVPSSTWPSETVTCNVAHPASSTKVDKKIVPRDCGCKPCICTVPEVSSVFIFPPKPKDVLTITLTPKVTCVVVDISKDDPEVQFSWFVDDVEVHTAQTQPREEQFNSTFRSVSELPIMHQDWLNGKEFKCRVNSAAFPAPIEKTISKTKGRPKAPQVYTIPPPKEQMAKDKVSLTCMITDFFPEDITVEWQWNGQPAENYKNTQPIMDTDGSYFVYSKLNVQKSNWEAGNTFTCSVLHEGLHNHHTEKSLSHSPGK

[6] = molecular target: T6, CD40 ECD Truncant 3 (amino acid 145-193) with mFc-tag (human); test: as above
T6 construct: mFc-tag at the C terminus; also called CRD4
T6 sequence (chain, as listed by the source limits assumed): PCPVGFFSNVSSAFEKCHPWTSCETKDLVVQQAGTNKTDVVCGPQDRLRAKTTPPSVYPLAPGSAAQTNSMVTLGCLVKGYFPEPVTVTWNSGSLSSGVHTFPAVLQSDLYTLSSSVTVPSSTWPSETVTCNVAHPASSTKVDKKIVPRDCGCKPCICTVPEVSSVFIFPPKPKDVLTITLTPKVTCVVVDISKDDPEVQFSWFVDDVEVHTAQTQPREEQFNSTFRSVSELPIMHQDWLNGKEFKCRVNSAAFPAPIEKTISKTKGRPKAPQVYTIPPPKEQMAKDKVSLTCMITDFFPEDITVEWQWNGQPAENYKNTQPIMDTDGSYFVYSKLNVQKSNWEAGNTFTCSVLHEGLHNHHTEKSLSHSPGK

[7] = molecular target: T7, CD40 ECD Truncant 4 (amino acid 38-193) with mFc-tag (human); test: as above
T7 construct: Truncated CRD1; mFc-tag at the C terminus; also called CRD delta1/2/3/4
T7 sequence (chain, as listed by the source limits assumed): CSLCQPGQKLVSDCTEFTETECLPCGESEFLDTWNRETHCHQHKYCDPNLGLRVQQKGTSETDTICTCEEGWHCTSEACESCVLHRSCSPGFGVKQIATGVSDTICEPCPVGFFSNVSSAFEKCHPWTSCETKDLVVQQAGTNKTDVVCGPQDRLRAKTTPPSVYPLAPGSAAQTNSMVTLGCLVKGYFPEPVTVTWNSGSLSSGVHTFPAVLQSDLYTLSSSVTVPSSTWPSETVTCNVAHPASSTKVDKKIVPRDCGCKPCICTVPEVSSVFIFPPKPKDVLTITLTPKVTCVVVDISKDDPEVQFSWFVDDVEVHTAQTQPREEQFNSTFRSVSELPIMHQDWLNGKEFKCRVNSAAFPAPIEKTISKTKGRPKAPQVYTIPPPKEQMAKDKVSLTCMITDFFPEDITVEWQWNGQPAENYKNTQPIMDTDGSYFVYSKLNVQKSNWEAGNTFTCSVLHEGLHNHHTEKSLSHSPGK

[8] = molecular target: T8, CD40 ECD Truncant 5 (amino acid 21-37 & 61-193) with mFc-tag (human); test: as above
T8 construct: Truncated CRD1; mFc-tag at the C terminus; also called CRD delta1/2/3/4
T8 sequence (chain, as listed by the source limits assumed): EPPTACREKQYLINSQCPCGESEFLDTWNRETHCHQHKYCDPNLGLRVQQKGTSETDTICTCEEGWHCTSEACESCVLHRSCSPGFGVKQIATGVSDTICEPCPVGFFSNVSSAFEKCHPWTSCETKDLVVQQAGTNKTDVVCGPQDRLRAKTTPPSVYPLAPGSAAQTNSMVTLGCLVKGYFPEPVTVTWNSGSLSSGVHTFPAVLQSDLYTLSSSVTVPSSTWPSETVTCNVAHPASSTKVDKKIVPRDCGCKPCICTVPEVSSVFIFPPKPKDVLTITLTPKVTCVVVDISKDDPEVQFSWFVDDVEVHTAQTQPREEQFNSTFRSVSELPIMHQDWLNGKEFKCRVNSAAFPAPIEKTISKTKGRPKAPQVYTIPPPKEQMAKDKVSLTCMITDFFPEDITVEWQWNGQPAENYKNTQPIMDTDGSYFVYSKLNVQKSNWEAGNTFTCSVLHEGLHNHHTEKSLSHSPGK

[9] = molecular target: T9, CD40 ECD Mutant 1 (amino acid 21-193, R7A/E8A) with mFc-tag (human); test: as above
T9 construct: Signal peptide left out
T9 sequence (chain, as listed by the source limits assumed, stated change not applied): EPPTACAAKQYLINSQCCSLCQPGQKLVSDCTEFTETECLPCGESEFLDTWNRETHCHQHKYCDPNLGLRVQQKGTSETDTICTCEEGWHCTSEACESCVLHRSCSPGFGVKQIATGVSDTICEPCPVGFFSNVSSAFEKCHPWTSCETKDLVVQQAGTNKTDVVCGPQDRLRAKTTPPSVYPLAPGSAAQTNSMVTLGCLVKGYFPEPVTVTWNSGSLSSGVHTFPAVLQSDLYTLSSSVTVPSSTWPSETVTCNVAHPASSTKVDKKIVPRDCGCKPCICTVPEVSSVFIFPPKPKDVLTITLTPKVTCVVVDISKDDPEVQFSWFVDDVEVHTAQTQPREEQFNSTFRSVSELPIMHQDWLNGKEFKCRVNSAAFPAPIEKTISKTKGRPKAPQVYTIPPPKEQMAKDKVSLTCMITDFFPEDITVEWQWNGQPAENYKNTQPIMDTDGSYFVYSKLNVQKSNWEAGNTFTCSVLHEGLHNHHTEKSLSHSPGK

[10] = molecular target: T3, recombinant human CD40 (ECD)-his; test: ELISA on coated recombinant TNFRSF proteins, serially diluted antibody (Example 17)
[11] = molecular target: T3, recombinant human CD40 (ECD)-his; test: as above; remark: listed apart in the source
[12] = molecular target: T10, human CD40 expressed on cells (human, UniProt P25942 21-277); test: cell-based or functional assay
T10 sequence (P25942 21-277 limits assumed): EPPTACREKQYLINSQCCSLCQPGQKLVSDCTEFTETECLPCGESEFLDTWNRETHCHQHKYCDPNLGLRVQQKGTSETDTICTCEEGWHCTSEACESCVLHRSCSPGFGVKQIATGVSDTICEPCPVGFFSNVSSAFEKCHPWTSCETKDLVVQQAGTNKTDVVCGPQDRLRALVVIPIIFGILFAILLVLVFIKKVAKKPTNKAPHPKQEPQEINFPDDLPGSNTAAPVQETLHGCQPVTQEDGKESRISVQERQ

mouse CD40-hFc = molecular target: T11, mouse CD40-hFc (mouse, UniProt P27512 20-193); test: ELISA, muCD40-hFc coated
T11 construct: Bought protein; also called muCD40-hFc
T11 sequence (P27512 20-193): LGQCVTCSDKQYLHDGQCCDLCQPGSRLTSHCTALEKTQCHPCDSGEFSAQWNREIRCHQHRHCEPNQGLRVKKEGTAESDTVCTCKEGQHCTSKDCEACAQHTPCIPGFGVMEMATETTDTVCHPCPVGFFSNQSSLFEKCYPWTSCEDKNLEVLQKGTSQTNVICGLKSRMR

[13] = molecular target: T12, mouse CD40 expressed on HEK293A cells (mouse, UniProt P27512 20-289); test: FACS, HEK293A/mouseCD40 cells
T12 construct: also called HEK293A/mouseCD40
T12 sequence (P27512 20-289 limits assumed): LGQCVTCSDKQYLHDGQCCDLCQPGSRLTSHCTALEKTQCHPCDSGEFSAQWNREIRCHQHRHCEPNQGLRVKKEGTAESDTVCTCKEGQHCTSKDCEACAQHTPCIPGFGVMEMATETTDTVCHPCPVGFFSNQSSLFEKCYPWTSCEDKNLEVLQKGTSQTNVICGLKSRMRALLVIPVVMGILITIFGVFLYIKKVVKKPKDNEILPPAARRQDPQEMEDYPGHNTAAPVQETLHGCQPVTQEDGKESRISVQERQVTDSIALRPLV

[14] = molecular target: T3, recombinant human CD40 (ECD)-his; test: ELISA, hCD40(ECD)-his coated
Description: (§2) ELISA plates were coated with 500 ng/ml human CD40 (ECD)-his (Sino Biological, CN, Cat #: 10774-H08H) at 4° C. overnight. The wells were blocked with 200 μl of blocking buffer (PBS containing 1% BSA, 1% goat serum, and 0.05% Tween 20) for 2 hours at room temperature, and then 100 μl of serially diluted anti-CD40 antibodies (starting from 40000 ng/ml) were added to each well and incubated for 1 hour at RT. Plates were washed for 3 times with PBST (PBS+0.05% Tween 20), added with Goat-anti-mouse IgG-HRP (Simga, US, Cat #: A9309-1 ml) diluted 5000×, and incubated for 1 hour at RT. Plates were developed with freshly prepared Ultra-TMB (BD, US, Cat #: 555214) for 5 minutes at RT. Absorbance was read on a SpectraMax® i3X (Molecular Devies, US) at 450 nm.

[15] = molecular target: T2, recombinant rhesus CD40 (ECD)-hFc; test: ELISA, rhCD40(ECD)-hFc coated
Description: as §2
Species-cross-reactivity of the 20 CD40 mAbs to monkey or mouse CD40 was further assessed by direct ELISA. Briefly, 500 ng/ml monkey CD40 (ECD)-hFc (Sino Biological, CN, Cat #: 90097-C02H) or mouse CD40-hFc (Sino Biological, CN, Cat #: 50324-M03H) was coated on 96-well ELISA plates followed by incubation with 100 μl of serially diluted anti-CD40 antibodies (starting from 40000 ng/ml). Goat anti-mouse IgG conjugated with HRP (Sigma, US, Cat #: A9309-1ml) was used then.

[16] = molecular target: T10, human CD40 expressed on cells; test: FACS, HEK293A/humanCD40 cells
Description: as §1

[17] = molecular target: T1, rhesus CD40 expressed on HEK293A cells; test: FACS, HEK293A/rhesusCD40 cells
Description: as §1

Binder	Kd [1] [nM]	koff [1] [s⁻¹]	kon [1] [M⁻¹ s⁻¹]	binding result [2]	binding result [3]	binding result [4]	binding result [5]	binding result [6]	binding result [7]	binding result [8]	binding result [9]	HEK Blue EC50 [12] [µg/mL]	binding result (mouse CD40-hFc)	binding result [13]	EC50 [14] [µg/mL]	EC50 [15] [µg/mL]	EC50 [16] [µg/mL]	EC50 [17] [µg/mL]	also measured
B1	2.93	0.00242	825000	binds	binds	no binding	no binding	no binding	no binding	no binding	binds	–	–	–	–	–	–	–	–
B2	7.68	0.00459	598000	binds	binds	no binding	no binding	no binding	no binding	no binding	binds	–	–	–	–	–	–	–	EC50 (read off the curve) [10]: ~0.02 µg/mL
B3	2.91	0.00581	2e+06	–	–	–	–	–	–	–	–	–	–	–	–	–	–	–	EC50 (read off the curve) [11]: ~0.02 µg/mL; EC50 (read off the curve) [2]: ~0.2 µg/mL
B4	–	–	–	–	–	–	–	–	–	–	–	0.0126	no binding	no binding	0.0207	0.0141	0.0485	0.0843	–
B5	3.58	0.00173	484000	–	binds	no binding	no binding	no binding	no binding	no binding	binds	–	–	no binding	–	–	–	–	–
B6	–	–	–	–	–	–	–	–	–	–	–	0.0114	no binding	no binding	0.0131	0.0129	0.0682	0.044	–
